Results published in patent US20240009137A1, “ORAL THERAPEUTIC DELIVERY” (ROYAL MELBOURNE INSTITUTE OF TECHNOLOGY, priority 2020, published 2024).
Values joined by “and” are separate entries in the source; they are usually repeats but may differ in a detail not shown here. Equal entries are not always repeated.

What was measured:
[1] = Release of insulin from bulk cubic phase (A280 of supernatant; Ritger-Peppas and Higuchi fits); assay type: physicochemical
Procedure: This mixture was then injected into a 1.5 mL Eppendorf tube and centrifuged at 1200 RPM for 1 min to achieve a flat surface. The height of this surface was measured to determine the diameter for subsequent surface area calculations. 150 μl of water was added on top of the cubic phase and immediately removed for T=0 time point. 150 μl of supernatant fluid was removed every 30 min over a 12 hour period for analysis and replaced with a further […] of water. A final reading was taken at 22 hour.
Mt, M0, k and n are the released quantity at time t, initial quantity encapsulated, fitting coefficient and fitting exponent, respectively. This allows for the coupling of multiple release mechanisms (e.g., diffusion-controlled, zero-order) where the diffusional exponent n, is indicative of the release mechanism and geometry of the interface and the fitting coefficient k reflects characteristics of both the matrix and the solute.
where Q, C0 and D are the released concentration per unit area, initial concentration per unit volume and the diffusion coefficient, respectively. Diffusion control dictates that the release profile against √t should be linear. […] The determined parameters were compared to those found during FRAP analysis (DFRAP).

chymotrypsin = molecular target: T1, chymotrypsin (Bos taurus, UniProt P00766); test: Enzymatic degradation of insulin by chymotrypsin followed by synchrotron CD (Dichroweb); assay type: in vitro ADME
T1 construct: purchased Sigma Aldrich (Australia)
Procedure: SR-CD measurements were conducted in the 170-350 nm region using the CD beamline of the synchrotron radiation source ASTRID2 at ISA, Centre for Storage Ring Facilities at Aarhus University (Denmark). Suprasil Quartz cells (Hellma GmbH & Co., Germany) of nominal 0.1 mm path length (actual calibrated path lengths=102.3 and […]), requiring an approximately 30 μl sample volume, were used for measurements at 37° C. in a temperature-regulated sample holder. […] The sample measurements were obtained at 1 nm increments in wavelength, 1 sec averaging time and 1 scan for each sample. Data were mildly smoothed with a 5-point moving mean in Matlab. The online service DichroWeb was used for secondary structure content analysis of the CD spectra using the CONTIN routine and the SP175 reference set.
Chymotrypsin, which is typically found in the small intestine, was utilized as a model enzyme.

[2] = Fluorescence recovery after photobleaching (FRAP), diffusion coefficient; assay type: physicochemical
Procedure: FRAP was performed on a Nikon confocal microscope. […] A bleaching and background region of interest (ROI) was used to selectively photobleach an area of the cubic phase and the fluorescence recovery curve was recorded with time. The excitation/emission wavelengths used were 553/627 nm for the octadecyl rhodamine B chloride. […] […] The open source Matlab code frap_analysis_2p5 was used to determine diffusion coefficients μ from FRAP data.

[3] = previously provided in the literature; cited from earlier work
[4] = insulin in water 0.2 mg/ml, chymotrypsin 0.02 mg/ml, time 0 min
[5] = insulin in water 0.2 mg/ml, chymotrypsin 0.02 mg/ml, time 2 min
[6] = insulin in water 0.2 mg/ml, chymotrypsin 0.02 mg/ml, time 12 min

## Insulin: human recombinant insulin (Sigma Aldrich); FITC labelled insulin used for FRAP; free or encapsulated in MO or PT cubic phase
[1]; from MO bulk cubic phase
  insulin released over the first two hours: approximately 15%
  release over a 24 h period: approximately 50%
[1]; from PT bulk cubic phase
  insulin released over the first two hours: approximately 25%
  release over a 24 h period: 60%
[1]; from the cubic phase (lipid not specified)
  insulin released over 2-hour time period: approximately 20%
[1]; insulin release from MO
  k, fitting coefficient (Ritger-Peppas model): 0.88 ± 0.06
[1]; release from MO bulk cubic phase into aqueous sink
  time to 20% release: ~4 h
[1]; release from PT bulk cubic phase into aqueous sink
  time to 20% release: ~2 h
chymotrypsin; insulin 0.2 mg/ml encapsulated in PT cubic phase, 30 min after addition of chymotrypsin
  far UV CD spectrum, secondary structure: still largely a-helical
chymotrypsin; insulin 0.2 mg/ml in water, 30 min after addition of chymotrypsin
  far UV CD spectrum, secondary structure: largely unordered
chymotrypsin; insulin 0.5 mg/ml in MO bulk cubic phase, 132 min after addition of chymotrypsin 0.05 mg/ml
  near-UV CD minimum at 270 nm: may still be observed
chymotrypsin; insulin encapsulated in PT cubic phase, 2 hours after addition of chymotrypsin
  far UV CD spectrum, secondary structure: retention of a-helical structures
chymotrypsin; insulin in lipid nanocarrier in the form of a mesophase
  duration of protection against enzymatic degradation after addition of chymotrypsin: at least 2 hours
chymotrypsin; insulin in solution 0.5 mg/ml, chymotrypsin 0.05 mg/ml
  time by which the near-UV CD minimum at 270 nm has essentially disappeared: ≤ 9 min
chymotrypsin; [4]
  Unordered(%): 8%
  β-sheet(%): 0%
  β-turns(%): 3%
chymotrypsin; [5]
  β-sheet(%): 0%
  β-turns(%): 9%
chymotrypsin; insulin in water 0.2 mg/ml, chymotrypsin 0.02 mg/ml, time 6 min
  β-sheet(%): 2%
chymotrypsin; [6]
  Unordered(%): 41%
  α-helix(%): 41% and 41.2%
chymotrypsin; insulin in water, no protective matrix, chymotrypsin added
  time to complete degradation: less than 35 min
[2]; MO QII^D phase at the water interface (DFRAP)
  Diffusion Coefficient: 2.89 ×10^−6 cm^2 s^−1
[2]; PT QII^D phase at the water interface (DFRAP)
  Diffusion Coefficient: 4.36 ×10^−6 cm^2 s^−1
[2]; in MO QII^D bulk cubic phase (insulin: FITC labelled, 5 mg/ml)
  Diffusion Coefficient: 2.29 ×10^−6 cm^2 s^−1
[2]; in PT QII^D bulk cubic phase (insulin: FITC labelled, 5 mg/ml)
  Diffusion Coefficient: 4.17 ×10^−6 cm^2 s^−1
[2]; in solution (free, FITC labelled insulin)
  Diffusion Coefficient: 6.56 ×10^−6 cm^2 s^−1
[2]; in solution (free, FITC labelled insulin), listed as insulin
  Diffusion Coefficient: 6.6 ×10^−6 cm^2 s^−1
[2]; stated for both lipids (MO and PT)
  diffusion coefficient higher at the interface compared to in the bulk: approximately 15%
[3]
  diffusion coefficient in water: 1.5 ×10^−6 cm^2 s^−1
